B5: Gal4-HIF1α(498-603) (other)
chain: MKLLSSIEQACDICRLKKLKCSKEKPKCAKCLKNNWECRYSPKTKRSPLTRAHLTEVESRLERLEQLFLLIFPREDLDMILKMDSLQDIKALLTGLFVQDNVNKDAVTDRLASVETDMPLTLRQHRISATSSSEESSNKGQRQLTVSTPSPSDGSTRQSSPEPNSPSEYCFYVDSDMVNEFKLELVEKLFAEDTEAKNPFSTQDTDLDLEMLAPYIPMDDDFQLRSFDQLSPLESSSASPESASPQSTVTVFQ
notes: also called Gal4-C-ODD; C-ODD

What was measured:
[1] = biological target: T1, VHL protein, HA-tagged, in vitro translated from p(HA)VHL (UniProt P40337 1-213); experiment: in vitro co-immunoprecipitation with anti-VHL, 35S-labeled Gal4 fusion
T1 construct: not shown: HA tag
T1 sequence (P40337 whole entry, the tested form may be a part): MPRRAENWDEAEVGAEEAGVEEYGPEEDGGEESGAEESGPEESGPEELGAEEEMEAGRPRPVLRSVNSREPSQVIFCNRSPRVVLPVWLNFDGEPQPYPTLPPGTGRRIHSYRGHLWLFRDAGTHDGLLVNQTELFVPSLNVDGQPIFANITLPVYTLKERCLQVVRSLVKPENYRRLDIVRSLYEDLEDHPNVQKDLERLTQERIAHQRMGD

[2] = biological target: T2, VHL protein (endogenous, in Hep3B / 293 cell extracts) (UniProt P40337 1-213, limits assumed); experiment: cell-based or functional assay
T2 sequence (P40337 whole entry, the tested form may be a part): as above

V5-tagged PHD1/HPH3 = biological target: T3, V5-tagged PHD1/HPH3 (human, UniProt Q96KS0 1-407, limits assumed); experiment: co-immunoprecipitation with anti-Gal4, Western blot with anti-V5, 293 cells with Cbz-LLL
T3 construct: V5/His-tagged expression plasmid; not shown: V5/His tag
T3 sequence (Q96KS0 whole entry, the tested form may be a part): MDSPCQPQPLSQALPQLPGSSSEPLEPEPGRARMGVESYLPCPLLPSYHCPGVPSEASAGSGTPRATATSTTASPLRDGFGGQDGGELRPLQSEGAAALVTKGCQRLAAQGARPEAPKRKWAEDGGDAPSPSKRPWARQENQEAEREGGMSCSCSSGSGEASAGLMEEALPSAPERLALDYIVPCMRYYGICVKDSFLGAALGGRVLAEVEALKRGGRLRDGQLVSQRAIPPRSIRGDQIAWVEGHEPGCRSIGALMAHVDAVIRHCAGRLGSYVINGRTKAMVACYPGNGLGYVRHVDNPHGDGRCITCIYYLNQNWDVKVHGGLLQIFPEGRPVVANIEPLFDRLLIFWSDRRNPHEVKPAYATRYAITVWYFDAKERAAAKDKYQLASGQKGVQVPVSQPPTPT

V5-tagged PHD2/HPH2 = biological target: T4, V5-tagged PHD2/HPH2 (human, UniProt Q9GZT9 1-426, limits assumed); experiment: as above
T4 construct: V5/His-tagged expression plasmid; also called HIF prolyl-4-hydroxylase; not shown: V5/His tag
T4 sequence (Q9GZT9 whole entry): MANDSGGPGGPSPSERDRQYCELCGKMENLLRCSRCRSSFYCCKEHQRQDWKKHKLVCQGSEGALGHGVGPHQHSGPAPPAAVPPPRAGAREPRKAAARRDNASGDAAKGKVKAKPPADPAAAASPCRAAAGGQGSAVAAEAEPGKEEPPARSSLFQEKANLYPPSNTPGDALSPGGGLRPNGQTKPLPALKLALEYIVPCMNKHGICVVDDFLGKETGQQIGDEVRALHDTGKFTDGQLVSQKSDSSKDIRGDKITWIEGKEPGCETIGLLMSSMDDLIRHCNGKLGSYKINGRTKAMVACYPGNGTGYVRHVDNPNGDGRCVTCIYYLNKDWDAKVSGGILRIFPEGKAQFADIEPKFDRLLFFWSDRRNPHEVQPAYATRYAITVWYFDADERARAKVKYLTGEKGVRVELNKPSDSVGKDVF

Gal4-HIF1α(498-603) = biological target: B5; experiment: as above
Protocol: One microgram of each plasmid was used. After treatment with Cbz-LLL for 4 h, cells were lyzed in a buffer (35) containing 25 mM Tris (pH 7.5), 300 mM NaCl, and 1% Triton-X. The lysate was immunoprecipitated with anti-Gal4 polyclonal antibody (Santa Cruz), followed by immunoblotting with anti-V5 antibody (Invitrogen) and monoclonal anti-Gal4 antibody (Santa Cruz).
To that end, we performed co-immunoprecipitations of C-ODD with the HIF prolyl hydroxylases.

[3] = biological target: T2, VHL protein (endogenous, in Hep3B / 293 …); experiment: EMSA super-shift with anti-VHL, transfected 293 cells

B1: Gal4-HIF1α(574-603) (other)
chain: MKLLSSIEQACDICRLKKLKCSKEKPKCAKCLKNNWECRYSPKTKRSPLTRAHLTEVESRLERLEQLFLLIFPREDLDMILKMDSLQDIKALLTGLFVQDNVNKDAVTDRLASVETDMPLTLRQHRISATSSSEESSNKGQRQLTVSLRSFDQLSPLESSSASPESASPQSTVTVFQ
binding result [1]: no binding

B2: Gal4-HIF1α(498-574)L574S (other, not shown: large carriers; small tags and cut ends)
chain: TPSPSDGSTRQSSPEPNSPSEYCFYVDSDMVNEFKLELVEKLFAEDTEAKNPFSTQDTDLDLEMLAPYIPMDDDFQS
binding result [1]: no binding

B3: Gal4-HIF1α(498-574) (other)
chain: MKLLSSIEQACDICRLKKLKCSKEKPKCAKCLKNNWECRYSPKTKRSPLTRAHLTEVESRLERLEQLFLLIFPREDLDMILKMDSLQDIKALLTGLFVQDNVNKDAVTDRLASVETDMPLTLRQHRISATSSSEESSNKGQRQLTVSTPSPSDGSTRQSSPEPNSPSEYCFYVDSDMVNEFKLELVEKLFAEDTEAKNPFSTQDTDLDLEMLAPYIPMDDDFQL
Gal4 luciferase reporter activity (Hep3B cells), in comparison to Gal4-HIF1α(498-573) [2]: 6.5 fold decrease | protein levels under normoxia (Western blot, 293 cells), in comparison to Gal4-HIF1α(498-573) [2]: ~3 fold decrease

B4: Gal4-HIF1α(401-603) with Pro-564 mutated to alanine (other, not shown: large carriers; small tags and cut ends)
chain: APAAGDTIISLDFGSNDTETDDQQLEEVPLYNDVMLPSPNEKLQNINLAMSPLPTAETPKPLRSSADPALNQEVALKLEPNPESLELSFTMPQIQDQTPSPSDGSTRQSSPEPNSPSEYCFYVDSDMVNEFKLELVEKLFAEDTEAKNPFSTQDTDLDLEMLAAYIPMDDDFQLRSFDQLSPLESSSASPESASPQSTVTVFQ
binding result [1]: no binding

B5
binding result (V5-tagged PHD1/HPH3): no binding

B6: Gal4-HIF1α(498-603)L574S (other, not shown: large carriers; small tags and cut ends)
chain: TPSPSDGSTRQSSPEPNSPSEYCFYVDSDMVNEFKLELVEKLFAEDTEAKNPFSTQDTDLDLEMLAPYIPMDDDFQSRSFDQLSPLESSSASPESASPQSTVTVFQ
notes: also called Gal4-C-ODD L574S mutant
binding result (V5-tagged PHD2/HPH2): no binding | binding result [1]: no binding | Gal4 luciferase reporter activity (Hep3B cells) under oxygenated conditions, in comparison to the wild-type [2]: 4.3 fold increase | expression level (Western blot, 293 cells), in comparison to Gal4-HIF1α(498-603) [2]: 7 fold increase

B7: V5-tagged PHD3/HPH1 (enzyme, human, UniProt Q9H6Z9 1-239, looked up)
chain: MPLGHIMRLDLEKIALEYIVPCLHEVGFCYLDNFLGEVVGDCVLERVKQLHCTGALRDGQLAGPRAGVSKRHLRGDQITWIGGNEEGCEAISFLLSLIDRLVLYCGSRLGKYYVKERSKAMVACYPGNGTGYVRHVDNPNGDGRCITCIYYLNKNWDAKLHGGILRIFPEGKSFIADVEPIFDRLLFFWSDRRNPHEVQPSYATRYAMTVWYFDAEERAEAKKKFRNLTRKTESALTED
notes: V5/His-tagged expression plasmid; not shown: V5/His tag
binding result (Gal4-HIF1α(498-603)): no binding

B8: Gal4-HIF1α(530-573) (other)
chain: MKLLSSIEQACDICRLKKLKCSKEKPKCAKCLKNNWECRYSPKTKRSPLTRAHLTEVESRLERLEQLFLLIFPREDLDMILKMDSLQDIKALLTGLFVQDNVNKDAVTDRLASVETDMPLTLRQHRISATSSSEESSNKGQRQLTVSEFKLELVEKLFAEDTEAKNPFSTQDTDLDLEMLAPYIPMDDDFQ
binding result [1]: no binding | binding result [3]: no binding

Reference: patent US20050202450A1 (US Dept. of Health and Human Services, published 2005)
